The values below come from patent US8076087B2, “Galectin sequences and compositions and methods utilizing same for treating or diagnosing arthritis and other chronic inflammatory diseases” (Medical Research Fund of Tel Aviv Souraskv Medical Center, priority 2002, dated 2011).

Experiment [1] has as its system IL-1ra. Description: IL-1ra levels in media of NIH 3T3 fibroblasts (negative control cells). The experiment is classed as cell-based, murine. Conditions: LPS 3 μg/ml, 50-2000 ng/ml, 48 hours. The procedure:
(§1) Inflammatory cells and PBLs derived from joints of rheumatoid arthritic (RA) patients were cultured individually [RPMI-1640 (Sigma, Israel)]. The murine fibroblast line, NIH 3T3, was used as a control. The recombinant galectin-8 peptide (r-galectin-8) was added to the culture medium of the synovial fibroblasts at a concentration of 0.125 μM, 0.25 μM, 0.5 μM and 1 μM) together with lipopolysaccharide (LPS, 3 μg/ml). The recombinant galectin-8 peptide variants (r-galectin-8 variant 1 and r-galectin-8 variant 2) were added to all the culture mediums in the following concentrations: 50 ng/ml, 125 ng/ml, 250 ng/ml, 500 ng/ml, 750 ng/ml, 1 μg/ml and 2 μg/ml together with lipopolysaccharide (LPS, 3 μg/ml). Following 48 hours of incubation (37° C., 5% CO2), the measurement of IL-1β, TNF-α and IL-1ra production was performed in supernatants by quantitative sandwich enzyme immunoassay technique (R&D Systems, Inc., USA). Detection limits were 1 pg/ml to 14 pg/ml. IL-1ra production was tested with and without the addition of lipopolysaccharide (LPS, 3 μg/ml) to the culture media.

A further experiment has as its system IL-1β. Description: IL-1β levels in media of NIH 3T3 fibroblasts (negative control cells). Conditions: LPS 3 μg/ml, 50-2000 ng/ml, 48 hours. The experiment is classed as cell-based, murine. As for the experimental part:
as §1

Experiment [2] deals with human fibroblasts from OA patients. The experiment in a line: Apoptosis induction, annexin V/PI flow cytometry, OA fibroblasts. The experiment is classed as cell-based. Conditions: for total cell population in the apoptotic area: 24 h, no-addition control 39.5%. As for the experimental part:
The assay was performed by Phosphatidyl Serine Detection Kit (IOP-116F FITC-conjugated, IQ Products, The Netherlands) using the manufacturer instructions. Human fibroblast cells from OA patients, synovial fluid cells and PBLs from RA and other arthritic patients were incubated with increasing concentrations of galectin-8 variants 1 and 2 (50-2000 ng/ml). Specific binding of annexin V was performed by the incubation of cells for 20 minutes on ice in a binding calcium buffer containing a saturating concentration of annexin V-fluorescein isothiocyanate (FITC) and propdium iodide (PI). After incubation, the cells were pelleted, and analyzed in FACS analyzer (Beckton Dickinson, San Jose, Calif.). Annexin V^+/PI^+ cells were defined as necrotic, while annexin V^+/PI^− cells were defined as apoptotic. The percent of the apoptotic cells of the total cells was determined.

In experiment [3] the test system is IL-1ra. The experiment in a line: IL-1ra levels in media of LPS-supplemented human synovial tissue / cell cultures, sandwich enzyme immunoassay. Conditions: LPS 3 μg/ml, 50-2000 ng/ml, 48 hours. It counts as cell-based. As for the experimental part:
Specimen Selection and Culture Conditions: Synovial tissues were obtained from patients undergoing total knee or hip replacement for osteoarthritis (OA). Within 2 hours of removal, synovial tissues were cut into small pieces, of a few millimeters in diameter. Synovial fibroblasts were cultured in 2 ml RPMI 1640 supplemented with 2 mM L-glutamine, 100 U/ml penicillin and 100 μg/ml streptomycin sulphate (Biological Industries).
as §1

B1: galectin-8 variant 1: recombinant galectin-8 variant 1 polypeptide, SEQ ID NO: 6, isoform found in synovial fluid cells of arthritic patients (protein)
chain: MMLSLNNLQNIIYNPDLQSTQASSLELTEISRENVPKSGTPQLPSNRGGDISKIAPRTVYTKSKEARQSHFDLHENTTYELCVKSLPFAARLNTPMGPGRTVVVKGEVNANAKSFNVDLLAGKSKDIALHLNPRLNIKAFVRNSFLQESWGEEERNITSFPFSPGMYFEMIIYCDVREFKVAVNGVHSLEYKHRFKELSSIDTLEINGDIHLLEVRSW
For the molecule B1, the “IL-1ra levels in media” value was “No effect” in the experiment with IL-1ra [1]; “remain unaffected” in the experiment with IL-1ra [1] (listed as galectin-8 var. 1); “significantly and dose-dependently increased” with IL-1ra [3] (PBLs of RA patients); “decrease” in the experiment with IL-1ra [3] (PBLs of RA patients, listed as galectin-8 var. 1); “significantly and dose-dependently increased” in the experiment with IL-1ra [3] (human fibroblasts from OA patients); “decrease” in the experiment on IL-1ra [3] (human fibroblasts from OA patients, listed as galectin-8 var. 1). The “IL-1ra levels in media” value with IL-1ra [3] (synovial fluid cells (SFCs)) was “significantly and dose-dependently increased”; in the experiment on IL-1ra [3] (synovial fluid cells (SFCs), listed as galectin-8 var. 1), “decrease”. The results for the “IL-1β levels in media” value in the experiment on IL-1β and with IL-1β (listed as galectin-8 var. 1) were “No effect” and “remain unaffected”, respectively. The “total cell population in the apoptotic area” value came out at 32.5% in experiment [2] (50 ng/ml); 47.5% in experiment [2] (125 ng/ml); 48.4% in experiment [2] (250 ng/ml); 55.5% in experiment [2] (500 ng/ml); 58.5% in experiment [2] (750 ng/ml); 77% in experiment [2] (1000 ng/ml). Moreover, in experiment [2] (2000 ng/ml), the “total cell population in the apoptotic area” value turned out to be 77%. Also, the “percentage of apoptotic cells” value in experiment [2] (increasing concentrations (50-2000 ng/ml)) is on record as “gradually increased”.
